Read-outs that look alike come from different tables or passages of the source. No end group written: not given here.
Key:
Conditions in all cases: modification not given
[1] = molecular target: T1, human GIP receptor (GIPR) (human), P48546
T1 chain: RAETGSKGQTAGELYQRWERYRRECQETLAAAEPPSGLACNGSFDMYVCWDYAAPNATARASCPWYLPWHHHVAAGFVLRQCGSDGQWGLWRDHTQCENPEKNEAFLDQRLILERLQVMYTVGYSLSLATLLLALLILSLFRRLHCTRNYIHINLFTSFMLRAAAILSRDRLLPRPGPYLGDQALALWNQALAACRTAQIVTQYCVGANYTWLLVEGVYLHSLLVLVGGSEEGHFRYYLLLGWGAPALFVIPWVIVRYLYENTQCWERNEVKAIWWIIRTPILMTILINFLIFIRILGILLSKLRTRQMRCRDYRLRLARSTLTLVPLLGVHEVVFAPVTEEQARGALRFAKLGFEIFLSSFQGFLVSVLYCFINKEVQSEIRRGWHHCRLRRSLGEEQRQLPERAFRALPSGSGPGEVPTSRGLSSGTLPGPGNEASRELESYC

[2] = molecular target: T1, human GIP receptor (GIPR) (human), …; assay: competition
[3] = molecular target: T1, human GIP receptor (GIPR) (human), …
[4] = molecular target: T1, human GIP receptor (GIPR) (human), …; assay: competition
[5] = molecular target: T1, human GIP receptor (GIPR) (human), …; assay: competition
[6] = molecular target: T1, human GIP receptor (GIPR) (human), …; assay: competition, 125I-GIP(1-42)
[7] = molecular target: T1, human GIP receptor (GIPR) (human), …; assay: competition, 125I-GIP(1-30)NH2
[8] = molecular target: T1, human GIP receptor (GIPR) (human), …; assay: competition, 125I-GIP(2-30)NH2
[9] = molecular target: T1, human GIP receptor (GIPR) (human), …; assay: competition, 125I-GIP(3-30)NH2
[10] = molecular target: T1, human GIP receptor (GIPR) (human), …; assay: other, Schild cAMP
[11] = molecular target: T1, human GIP receptor (GIPR) (human), …; assay: competition, 125I-hGIP

EGTFISDYSIAMDKIHQQDFVNWLLAQK [hGIP(3-30)] was tested, and the Ki [1] was 15 nM and the IC50 [2] was 16 nM.

For EGTFISDYSIAMDKIHQQDFVNWLLAQK [GIP(3-30)NH2], the Ki [3] was 14.9 nM, the IC50 [4] was 4.4 nM and the IC50 [2] was 3.4 nM. The Ki [2] was 2.3 nM and the IC50 [5] was 0.76 nM.

Binder AEGTFISDYSIAMDKIHQQDFVNWLLAQK (not fully specified (C-terminus)) [GIP(2-30)NH2] has a Ki [6] of 14.3 nM, an IC50 [7] of 26 nM and an IC50 [8] of 2.7 nM. The IC50 [9] was 7.7 nM.

EGTFISDYSIAMDKIKQQDFVNWLLAQK [hGIP(3-30)H18K] was tested, and the Ki [10] was 37 nM and the IC50 [11] was 7.8 nM.

Work on EGTFISDYSIAMDAIAQQDFVNWLLAQK [hGIP(3-30)K16A H18A] yielded a Ki [10] of 15 nM.

DYSIAMDKIHQQDFVNWLLAQK (not fully specified (C-terminus)) [GIP(9-30)NH2] was tested, and the Ki [6] was 307 nM.

Work on EGTFISDYSIAMEKIAQQDFVNWLLAQK [hGIP(3-30)D15E H18A] yielded a Ki [10] of 7.9 nM.

Binder EGTFISDYSIAMDKIAQQDFVNWLLAQK [hGIP(3-30)H18A] has a Ki [10] of 35 nM.

In the case of SDYSIAMDKIHQQDFVNWLLAQK (not fully specified (C-terminus)) [GIP(8-30)NH2], the Ki [6] is reported as 79 nM.

For TFISDYSIAMDKIHQQDFVNWLLAQK (not fully specified (C-terminus)) [GIP(5-30)NH2], the Ki [10] was 15.2 nM and the Ki [6] was 5.9 nM.

For GTFISDYSIAMDKIHQQDFVNWLLAQK (not fully specified (C-terminus)) [GIP(4-30)NH2], the Ki [6] was 21.5 nM.

Work on FISDYSIAMDKIHQQDFVNWLLAQK (not fully specified (C-terminus)) [GIP(6-30)NH2] yielded a Ki [6] of 347 nM, an IC50 [7] of 1060 nM and an IC50 [8] of 340 nM. The IC50 [9] was 370 nM.

Reference: US20180258152
